The supplement of paper PMC12042874
± gives the uncertainty stated by the source.

Assay: amyloid nucleation score (Sup35N fusion, yeast selection) (log enrichment); library NNK3; higher = more nucleation; inactive = no reads after selection
Outline: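 Sup35N was fused to peptides of 20 random codons and expressed in psi-negative yeast, which were induced with 100 μM copper sulfate for 24 hours and then grown on medium lacking adenine and uracil for 7 days at 30°C. Plasmid inserts from input and output were sequenced on Illumina. The nucleation score is the DiMSum log enrichment of output over input reads, centred on the mode score of non-aggregating sequences. Sequences with under 100 input reads were left out, and random libraries had three technical output replicates.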

Substance | amyloid nucleation score
TRLRSTPVLVVNW | inactive
TRMSGRHLCVITACLLTLNC | 0.576 ± 0.15
TRSGST | inactive
TRVDLLYRSRNDGIVFFSRF | 0.773 ± 0.2
TRVFTGKQPENDRET | inactive
TRWQRCSAIPPVGEA | inactive
TSDQSESISLFRYI | inactive
TSFGYNLGLRRCSYRMTAEW | 1.44 ± 0.13
TSGQSVVSSRTHCVIRCRRR | inactive
TSLLAELLVWWE | inactive
TSLSTSKVLDASLRMDQLST | inactive
TSMSGDVHVVYVVVEHVKPP | 2.46 ± 0.089
TSNRGDWVHFTVYSFYESTM | inactive
TSRLFHKFLGYAPSRTNSSL | inactive
TSTYSFCTRVWYPASIIFGR | inactive
TSWTGWVRCHIGSSNISALT | inactive
TSYKYDSNR | inactive
TSYSKEVFQLLKWVGNLIRG | inactive
TTELVF | inactive
TTEPDRATLSYR | inactive
TTFFGCSFGLCRAIIGLDNV | 1.34 ± 0.076
TTKEVESNSAHCPKSSLACT | inactive

Substance | amyloid nucleation score
TTRIVSNCCMLIVL | 1.29 ± 0.12
TVAEMNIMLC | 2.37 ± 0.076
TVFSCYSWELEMMLWDGSYM | inactive
TVGQQWRPSRKLSSSSAIRN | inactive
TVGTIPFWVALPSTSLNR | inactive
TVHYSLIRWTSGNCGLGYW | 0.841 ± 0.17
TVIFWWLKGNRPVSMIDSDI | inactive
TVLGELKVLFRYWFHIIWYF | inactive
TVLYFA | inactive
TVRDELSSVFL | inactive
TVRFLVHYITAKGKSVGITK | inactive
TVRKSSIGGCVASYPFEHNK | inactive
TVSKANWVLLEFLTFCGMI | 1.74 ± 0.096
TVSYSQPVWSMDFIVGYLGV | inactive
TVTFYNCIVGCVSNWVSVQG | 1.77 ± 0.068
TVYEA | inactive
TVYSGWCTREVRICEPMNRG | inactive
TWGKRFYSGIMVQCIREEWA | -0.741 ± 1.7
TWGPHLIPLFNNL | inactive
TWQFSGYWCSLYMSA | 1.67 ± 0.12
TWRFVPRPLLVCMLYRYLCK | inactive
TWSRRGSGAPACVVVTWVPA | inactive

Substance | amyloid nucleation score
TWWSEGIYELKYGLFWLGVV | inactive
TYAYELRIFSDYSHGLGFDP | -0.659 ± 0.88
TYEVPGPPSQRSLSY | inactive
TYFILKETATDLN | inactive
TYKIIRYFLNLICSFRGPMP | inactive
TYLEMDIAPAMRLCS | inactive
TYLHDLYT | inactive
TYMGSTYLSNSYVLVSNNIK | 1.72 ± 0.12
TYYRCSSANLSSGRAEVYKY | inactive
VACTVSEAYKCTLIWTHLVR | inactive
VAFYMMYSSGPQRTRRWVTV | inactive
VAGSLVAKP | inactive
VAKVNCTW | -0.431 ± 0.9
VALAGNYCSANVVHCMFLNL | inactive
VARGNMCNL | inactive
VASTVSRVAKDTKAKVAYR | inactive
VATYVPCPCYSMFCAGIC | -0.355 ± 0.7
VAVVIEYMKLVVLG | inactive
VCCFWVVDIKILFSGLPISS | 2.28 ± 0.069
VCDSHQ | inactive
VCFILFSS | inactive
VCFVWFRRWPTIPR | inactive
